Measured values as given in patent publication US20210269772A1, “COMPOSITIONS AND METHODS RELATED TO APTAMER-BASED REVERSIBLE CELL SELECTION” (UNIVERSITY OF WASHINGTON, published 2021).

Experiments:
[1] = molecular target: CD8 alpha (CD8a) extracellular domain (Homo sapiens, UniProt P01732 P01732:22-182); assay: BLI; 25 C, 5.5 mM Mg, tRNA, BSA, 0.01% tween-20; conditions: tags: Sino Biological; label: 5'-FAM (cells); biotin (BLI)
Experimental: The observed differences in binding affinity values determined by the two methods is expected. Mass transport limitations not present with BLI but present when staining cells in static wells will favor re-binding and thereby limit dissociation, improving the apparent KD of the faster dissociating A3 relative to the other aptamers.
BLI studies were conducted on a ForteBio Octet Red96 instrument at 25° C. with sample agitation at 1000 rpm. The sample buffer used for all steps was comprised of binding buffer with 0.01% tween-20. Streptavidin-coated biosensors were loaded with 50nM biotinylated aptamer until all sensors (except for the reference) reached a capture threshold of 0.5 nm. After a 100 second rinse and baseline steps in buffer alone, sensors were exposed to a 1:3 dilution series of recombinant human CD8a protein (Sino Biological) ranging from 150nM to 5.56nM. Association with protein was monitored for 1200 sec, and dissociation was carried out for 600 second in buffer alone. Data analysis was carried out using Octet Data Analysis 9.0 software (ForteBio). Kinetic constants were calculated by conducting a global fit of the several processed association and dissociation curves from the protein dilution series to a 1:1 binding model. The quality of the fit was evaluated by the R2 and χ2 values.

[2] = molecular target: CD8 alpha (CD8a) on CD8+ T cells / PBMC (Homo sapiens, UniProt P01732 P01732:22-235); assay: flow; apparent Kd on CD8+ T cells, 4 C, 5.5 mM Mg; binding reduced 73-77% by CD8a siRNA; conditions: label: 5'-FAM (cells); biotin (BLI)
Chain of CD8 alpha (CD8a) on CD8+ T cells / PBMC (P01732 22-235, one chain of several): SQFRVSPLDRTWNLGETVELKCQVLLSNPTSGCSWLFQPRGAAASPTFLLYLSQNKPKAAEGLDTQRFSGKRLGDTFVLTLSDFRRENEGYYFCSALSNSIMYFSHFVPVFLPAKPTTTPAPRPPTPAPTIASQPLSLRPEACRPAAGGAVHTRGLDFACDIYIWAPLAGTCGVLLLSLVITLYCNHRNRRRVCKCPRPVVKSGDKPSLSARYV

Chain of CD8 alpha (CD8a) extracellular domain (P01732 22-182, one chain of several): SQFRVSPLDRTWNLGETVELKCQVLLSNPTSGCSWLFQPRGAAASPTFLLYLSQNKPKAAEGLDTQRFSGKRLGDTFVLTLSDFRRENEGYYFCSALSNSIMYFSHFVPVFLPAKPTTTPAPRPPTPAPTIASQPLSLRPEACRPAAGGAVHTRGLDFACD

Row | Binder | Kd [1] [nM] | Kd [2] [nM]
1 | A1 (ssDNA) DNA: ATCCAGAGTGACGCAGCACGCAGCACCCGTGGTAGTGTATCAGGGAGACACTACGTGATGCAGCTTGAAATGGACACGGTGGCTTAGT | 20.1 | 18.3
2 | A3 (ssDNA) DNA: ATCCAGAGTGACGCAGCAACAGAGGTGTAGAAGTACACGTGAACAAGCTTGAAATTGTCTCTGACAGAGGTGGACACGGTGGCTTAGT |  | 1.9
3 | A8 (ssDNA) DNA: ATCCAGAGTGACGCAGCAGCTCGATCGTATAGCCGTGACGCAGCTTGAAATGGGATCGCGTCCACAGTTTTGGACACGGTGGCTTAGT |  | 2.4
